Measurements from article PMC3444475.
Like-named read-outs stand apart in the source and are kept apart here.

Legend:
α5β1 integrin = α5β1 integrin (UniProt P08648); assay: optical biosensor (IAsys); α5β1 integrin immobilised; free LG3 at 3.1×10^−8 M to 3.1×10^−7 M, D3904A DV at 8.0×10^−8 M to 4.0×10^−7 M; global fitting; Kd calculated as koff/kon
[1] = molecular target: integrin α2β1 α2 ligand binding domain (Homo sapiens) (UniProt P17301); conditions: cited from earlier work
[2] = molecular target: integrin α5β1 (Homo sapiens) (UniProt P08648); conditions: cited from earlier work
[3] = molecular target: integrin α2β1 α2 ligand binding domain (Homo sapiens) (UniProt P17301); conditions: cited from earlier work; remark: listed apart in the source

Sequence of α5β1 integrin (P08648 42-1049, chain 1 of 2): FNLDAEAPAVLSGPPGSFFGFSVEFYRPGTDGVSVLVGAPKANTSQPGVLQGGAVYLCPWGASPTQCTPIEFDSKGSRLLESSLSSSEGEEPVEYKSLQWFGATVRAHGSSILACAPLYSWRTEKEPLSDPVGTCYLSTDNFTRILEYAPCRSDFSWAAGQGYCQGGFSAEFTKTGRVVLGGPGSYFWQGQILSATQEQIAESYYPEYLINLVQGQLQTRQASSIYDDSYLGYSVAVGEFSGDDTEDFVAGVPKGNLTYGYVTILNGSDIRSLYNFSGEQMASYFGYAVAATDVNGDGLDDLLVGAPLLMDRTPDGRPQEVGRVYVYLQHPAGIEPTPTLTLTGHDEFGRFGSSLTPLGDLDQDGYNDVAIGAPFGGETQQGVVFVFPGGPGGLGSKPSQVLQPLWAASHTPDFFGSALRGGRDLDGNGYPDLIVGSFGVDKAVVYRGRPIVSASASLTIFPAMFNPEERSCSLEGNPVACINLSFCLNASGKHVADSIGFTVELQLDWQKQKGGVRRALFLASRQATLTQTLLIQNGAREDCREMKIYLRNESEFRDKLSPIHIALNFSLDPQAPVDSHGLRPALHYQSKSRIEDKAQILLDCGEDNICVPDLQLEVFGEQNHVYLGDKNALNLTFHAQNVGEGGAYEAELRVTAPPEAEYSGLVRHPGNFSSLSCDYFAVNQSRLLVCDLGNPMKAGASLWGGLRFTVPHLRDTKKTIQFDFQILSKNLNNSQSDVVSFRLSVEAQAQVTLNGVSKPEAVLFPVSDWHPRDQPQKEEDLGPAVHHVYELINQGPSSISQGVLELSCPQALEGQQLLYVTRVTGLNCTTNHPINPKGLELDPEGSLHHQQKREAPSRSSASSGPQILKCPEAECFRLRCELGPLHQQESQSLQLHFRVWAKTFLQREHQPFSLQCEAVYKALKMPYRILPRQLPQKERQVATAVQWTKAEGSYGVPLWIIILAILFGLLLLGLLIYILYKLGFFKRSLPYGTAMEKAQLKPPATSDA
Sequence of α5β1 integrin (P05556 21-798, chain 2 of 2, further chain): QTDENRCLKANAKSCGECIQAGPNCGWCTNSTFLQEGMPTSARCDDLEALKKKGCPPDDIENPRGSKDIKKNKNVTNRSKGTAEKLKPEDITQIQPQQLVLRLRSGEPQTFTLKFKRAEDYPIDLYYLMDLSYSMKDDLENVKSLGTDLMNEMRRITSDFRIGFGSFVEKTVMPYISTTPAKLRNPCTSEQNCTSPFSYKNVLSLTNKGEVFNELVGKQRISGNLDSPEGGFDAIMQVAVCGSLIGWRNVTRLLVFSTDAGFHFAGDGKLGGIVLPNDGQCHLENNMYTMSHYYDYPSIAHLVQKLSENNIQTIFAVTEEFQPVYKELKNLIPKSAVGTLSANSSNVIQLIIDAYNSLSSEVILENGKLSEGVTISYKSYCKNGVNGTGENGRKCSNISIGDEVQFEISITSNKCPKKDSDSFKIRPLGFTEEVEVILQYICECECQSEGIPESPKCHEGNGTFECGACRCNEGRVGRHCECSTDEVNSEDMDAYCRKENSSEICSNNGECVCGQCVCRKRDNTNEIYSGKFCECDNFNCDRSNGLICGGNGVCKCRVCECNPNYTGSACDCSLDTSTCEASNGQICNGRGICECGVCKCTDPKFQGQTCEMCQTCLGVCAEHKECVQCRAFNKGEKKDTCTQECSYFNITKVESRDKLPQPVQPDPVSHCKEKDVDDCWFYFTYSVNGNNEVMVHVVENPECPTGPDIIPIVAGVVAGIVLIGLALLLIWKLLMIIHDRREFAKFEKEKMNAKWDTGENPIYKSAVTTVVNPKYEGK
Sequence of integrin α2β1 α2 ligand binding domain (Homo sapiens) (P17301 30-1132, chain 1 of 2): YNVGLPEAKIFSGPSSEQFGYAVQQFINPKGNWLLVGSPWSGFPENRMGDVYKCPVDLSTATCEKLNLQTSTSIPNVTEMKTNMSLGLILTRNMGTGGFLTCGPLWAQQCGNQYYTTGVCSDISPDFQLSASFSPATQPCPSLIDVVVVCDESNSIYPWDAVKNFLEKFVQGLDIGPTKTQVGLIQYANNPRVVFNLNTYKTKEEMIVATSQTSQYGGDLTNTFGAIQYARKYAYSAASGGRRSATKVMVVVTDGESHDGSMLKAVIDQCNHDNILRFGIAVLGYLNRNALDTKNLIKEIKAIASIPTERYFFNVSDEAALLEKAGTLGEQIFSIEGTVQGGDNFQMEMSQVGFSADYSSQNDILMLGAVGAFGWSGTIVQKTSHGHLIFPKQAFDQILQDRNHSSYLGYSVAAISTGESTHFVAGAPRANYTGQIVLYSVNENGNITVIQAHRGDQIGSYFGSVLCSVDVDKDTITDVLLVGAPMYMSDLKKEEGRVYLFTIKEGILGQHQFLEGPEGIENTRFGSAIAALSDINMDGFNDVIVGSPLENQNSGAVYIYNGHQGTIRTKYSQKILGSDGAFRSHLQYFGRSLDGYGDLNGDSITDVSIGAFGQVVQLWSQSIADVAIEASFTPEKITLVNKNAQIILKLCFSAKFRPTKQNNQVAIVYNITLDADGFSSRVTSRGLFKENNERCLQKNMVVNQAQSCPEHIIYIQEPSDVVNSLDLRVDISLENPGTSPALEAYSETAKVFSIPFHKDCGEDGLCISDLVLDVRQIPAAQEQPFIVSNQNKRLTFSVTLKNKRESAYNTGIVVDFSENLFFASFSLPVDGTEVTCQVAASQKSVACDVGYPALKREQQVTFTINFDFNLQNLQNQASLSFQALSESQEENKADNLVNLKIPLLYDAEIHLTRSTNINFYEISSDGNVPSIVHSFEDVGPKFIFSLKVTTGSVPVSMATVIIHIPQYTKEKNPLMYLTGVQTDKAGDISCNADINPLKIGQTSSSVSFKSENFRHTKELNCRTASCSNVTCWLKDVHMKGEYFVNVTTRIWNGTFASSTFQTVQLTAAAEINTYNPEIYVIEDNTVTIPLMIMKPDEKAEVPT
Sequence of integrin α2β1 α2 ligand binding domain (Homo sapiens) (P05556 21-728, chain 2 of 2, further chain): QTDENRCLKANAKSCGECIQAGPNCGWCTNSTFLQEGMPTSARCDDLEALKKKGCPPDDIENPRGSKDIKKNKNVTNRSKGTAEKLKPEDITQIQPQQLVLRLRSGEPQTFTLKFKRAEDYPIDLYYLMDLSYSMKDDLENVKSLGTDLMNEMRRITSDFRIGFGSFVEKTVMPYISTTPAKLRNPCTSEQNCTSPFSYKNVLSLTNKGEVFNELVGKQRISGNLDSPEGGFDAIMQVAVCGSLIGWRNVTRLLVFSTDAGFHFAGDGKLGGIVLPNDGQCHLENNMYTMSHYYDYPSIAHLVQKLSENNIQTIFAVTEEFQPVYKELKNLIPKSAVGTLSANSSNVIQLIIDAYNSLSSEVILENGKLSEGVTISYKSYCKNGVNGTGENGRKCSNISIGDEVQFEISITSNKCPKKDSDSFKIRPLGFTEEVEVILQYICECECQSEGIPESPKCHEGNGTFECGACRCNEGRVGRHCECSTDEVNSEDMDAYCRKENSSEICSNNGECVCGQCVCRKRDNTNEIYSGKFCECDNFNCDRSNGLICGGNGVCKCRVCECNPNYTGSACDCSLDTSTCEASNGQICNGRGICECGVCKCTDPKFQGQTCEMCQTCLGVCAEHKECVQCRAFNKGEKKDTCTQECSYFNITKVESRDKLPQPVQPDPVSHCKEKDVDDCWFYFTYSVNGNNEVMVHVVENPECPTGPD
Sequence of Perlecan domain V Domain V (P98160 3687-4391): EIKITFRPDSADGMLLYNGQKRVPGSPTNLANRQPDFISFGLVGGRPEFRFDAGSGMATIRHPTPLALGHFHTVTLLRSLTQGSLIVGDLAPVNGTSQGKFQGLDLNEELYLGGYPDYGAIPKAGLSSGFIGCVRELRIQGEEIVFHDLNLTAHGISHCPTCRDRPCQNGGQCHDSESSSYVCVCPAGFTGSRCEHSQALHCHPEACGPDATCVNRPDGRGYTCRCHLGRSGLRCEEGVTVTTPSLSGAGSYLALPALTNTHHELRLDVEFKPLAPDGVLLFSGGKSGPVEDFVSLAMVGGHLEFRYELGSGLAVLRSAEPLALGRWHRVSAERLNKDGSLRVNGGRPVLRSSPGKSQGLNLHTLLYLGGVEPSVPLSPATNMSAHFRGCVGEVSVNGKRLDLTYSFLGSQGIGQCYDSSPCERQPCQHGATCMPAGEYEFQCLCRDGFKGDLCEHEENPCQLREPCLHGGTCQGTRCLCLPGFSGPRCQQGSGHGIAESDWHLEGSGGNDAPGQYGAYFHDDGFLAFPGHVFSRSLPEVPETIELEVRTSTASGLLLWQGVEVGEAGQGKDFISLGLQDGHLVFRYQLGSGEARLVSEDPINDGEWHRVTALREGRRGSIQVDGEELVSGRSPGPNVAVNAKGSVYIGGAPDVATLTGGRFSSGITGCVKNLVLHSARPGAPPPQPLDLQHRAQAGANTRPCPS
Sequence of Perlecan LG3 LG3 (P98160 4194-4391): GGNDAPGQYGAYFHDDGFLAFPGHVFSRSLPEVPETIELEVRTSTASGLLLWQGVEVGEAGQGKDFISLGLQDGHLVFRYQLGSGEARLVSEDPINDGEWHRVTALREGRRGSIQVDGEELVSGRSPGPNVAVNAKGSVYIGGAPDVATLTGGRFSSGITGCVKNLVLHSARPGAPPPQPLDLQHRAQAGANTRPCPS

## D3904A DV (perlecan Domain V with A in place of the D of its DGR sequence) (domain or fragment; other documents disagree on this pair)
α5β1 integrin
  Kd: 0.37 µM
  koff: 0.22 s⁻¹
  kon: 600000 M⁻¹ s⁻¹

## Perlecan LG3 LG3 (from UniProt P98160)
[1]
  Kd: 1 µM

## Perlecan domain V Domain V (from UniProt P98160)
[2]
  Kd: 0.16 µM
[3]
  Kd: 0.08 µM
